From patent US20030148956A1 (PROCTER AND GAMBLE, published 2003)

T1: corticotropin releasing factor 2 receptor
T1 sequence (Q13324 whole entry, species assumed, looked up): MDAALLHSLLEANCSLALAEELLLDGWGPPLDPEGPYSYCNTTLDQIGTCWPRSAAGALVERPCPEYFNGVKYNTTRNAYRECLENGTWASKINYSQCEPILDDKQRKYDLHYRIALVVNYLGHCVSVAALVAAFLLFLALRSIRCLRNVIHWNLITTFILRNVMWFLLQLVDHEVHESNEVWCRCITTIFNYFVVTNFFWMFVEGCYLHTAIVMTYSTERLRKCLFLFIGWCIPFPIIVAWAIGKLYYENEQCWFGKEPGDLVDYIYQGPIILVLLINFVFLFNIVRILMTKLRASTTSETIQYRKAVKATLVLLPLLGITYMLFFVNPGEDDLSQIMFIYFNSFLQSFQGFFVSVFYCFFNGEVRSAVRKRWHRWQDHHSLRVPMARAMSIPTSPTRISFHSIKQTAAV


The binders below were run against T1, corticotropin releasing factor 2 … (assay: cell-based or functional assay).

| CRF2R EC50 [nM] | CRF2R Emax % [%] | Binder |
| --- | --- | --- |
| 8.5 | 100 | ZGPPISIDLPQFLLRKMIEIEKQEKEKQQAANNRLLLDTI (C-terminal amide) [SEQ ID NO 221] |
| 19.6 | 98 | ZGPPISIDLPLQLLRKMIEIEKQEKEKQQAANNALLLDTI (C-terminal amide) [SEQ ID NO 248] |
| 25.7 | 100 | ZGPPISIDLPLELLRKMIEIEKQEKEKQQAANNALLLDTI (C-terminal amide) [SEQ ID NO 235] |
| 100 | 36 | ZGPPISIDVPIGLLRKMIEIEKQEKEKQQAANNRLLLDTI (C-terminal amide) [SEQ ID NO 254] |
| 7.5 | 93 | ZGPPISIDLPLYLLRKMIEIEKQEKEKQQAANNALLLATI (C-terminal amide) [SEQ ID NO 245] |
| 41.8 | 86 | ZGPPISIDVPTYLLRKMIEIEKQEKEKQQAANNRLLLDTI (C-terminal amide) [SEQ ID NO 253] |
| 9.4 | 100 | ZGPPISIDLPAFLLRKMIEIEKQEKEKQQAANNRLLLDTI (C-terminal amide) [SEQ ID NO 222] |
| 12.6 | 99 | ZGPPISIDLPLHLLRKMIEIEKQEKEKQQAANNALLLATI (C-terminal amide) [SEQ ID NO 241] |
| 7 | 100 | ZGPPISIDLPFQLLRILIEIEKQEKEKQQAANNRLLLDTI (C-terminal amide) [SEQ ID NO 255] |
| 12.2 | 92 | ZGPPISIDLPLQLLEKMIEIEKQEKEKQQAANNALLLATI (C-terminal amide) [SEQ ID NO 249] |
| 22.2 | 93 | ZGPPISIDLPIYLLRKMIEIEKQEKEKQQAANNALLLATI (C-terminal amide) [SEQ ID NO 237] |
| 16.7 | 100 | ZGPPISIDLPLHLLRKMIEIEKQEKEKQQATTNARLLDTV (C-terminal amide) [SEQ ID NO 238] |

The remaining lines, values behind:

| Binder | CRF2R EC50 [nM] | CRF2R Emax % [%] |
| --- | --- | --- |
| ZGPPISIDLPLWLLRKMIEIEKQEKEKQQAANNRLLLDTI (C-terminal amide) [SEQ ID NO 218] | 4.8 | 96 |
| ZGPPISIDLPLHLLRKMIEIEKQEKEKQQAANNALLLDTI (C-terminal amide) [SEQ ID NO 240] | 22 | 100 |
| ZGPPISIDLPQYLLRKMIEIEKQEKEKQQAANNALLLDTI (C-terminal amide) [SEQ ID NO 224] | 26.9 | 100 |
| ZGPPISIDLPTYLLRKMIEIEKQEKEKQQAANNALLLATI (C-terminal amide) [SEQ ID NO 233] | 46.1 | 95 |
| ZGPPISIDLPFQLLRKMIEIEKQEKEKQQAANNRLLLATI (C-terminal amide) [SEQ ID NO 250] | 19.7 | 100 |
| ZGPPISIDLPTYLLRILIEIEKQEKEKQQAANNRLLLDTI (C-terminal amide) [SEQ ID NO 252] | 22.3 | 100 |
| ZGPPISIDLPHFLLRKMIEIEKQEKEKQQAANNRLLLDTI (C-terminal amide) [SEQ ID NO 219] | 7.8 | 98 |
| ZGPPISIDLPYFLLRKMIEIEKQEKEKQQAANNRLLLDTI (C-terminal amide) [SEQ ID NO 220] | 4.1 | 98 |
| ZGPPISIDLPTYLLRKMIEIEKQEKEKQQAANNALLLDTI (C-terminal amide) [SEQ ID NO 232] | 45.3 | 100 |
| ZGPPISIDLPYYLLRKMIEIEKQEKEKQQAANNALLLATI (C-terminal amide) [SEQ ID NO 225] | 4.8 | 89 |
| ZGPPISIDLPFHLLRKMIEIEKQEKEKQQAANNALLLATI (C-terminal amide) [SEQ ID NO 229] | 10.3 | 100 |
| ZGPPISIDLPIYLLRKMIEIEKQEKEKQQAANNALLLDTI (C-terminal amide) [SEQ ID NO 236] | 40.4 | 97 |
| ZGPPISIDLPYYLLRKMIEIEKQEKEKQQAANNALLLDTI (C-terminal amide) [SEQ ID NO 226] | 7.6 | 100 |
| ZGPPISIDLPQYLLRKMIEIEKQEKEKQQAANNALLLATI (C-terminal amide) [SEQ ID NO 227] | 33.6 | 95 |
| ZGPPISIDLPFQLLRKMIEIEKQEKEKQQAANNALLLDTI (C-terminal amide) [SEQ ID NO 251] | 11.8 | 100 |
| ZGPPISIDLPFHLLRKMIEIEKQEKEKQQAANNALLLDTI (C-terminal amide) [SEQ ID NO 228] | 7.1 | 100 |
| ZGPPISIDLPLYLLRKMIEIEKQEKEKQQAANNALLLDTI (C-terminal amide) [SEQ ID NO 244] | 8.8 | 98 |
| ZGPPISIDLPLELLRKMIEIEKQEKEKQQAANNALLLATI (C-terminal amide) [SEQ ID NO 234] | 20.6 | 100 |
| ZGPPISIDLPFYLLRKMIEIEKQEKEKQQAANNALLLATI (C-terminal amide) [SEQ ID NO 231] | 5.9 | 100 |
| ZGPPISIDLPFFLLRKMIEIEKQEKEKQQAANNRLLLDTI (C-terminal amide) [SEQ ID NO 223] | 3 | 92 |
| ZGPPISIDLPFYLLRKMIEIEKQEKEKQQAANNALLLDTI (C-terminal amide) [SEQ ID NO 230] | 8.1 | 100 |
| ZGPPISIDLPLQLLEKMIEIEKQEKEKQQATTNARLLDRV (C-terminal amide) [SEQ ID NO 247] | 18.8 | 100 |
| ZGPPISIDLPLHLLRKMIEIEKQEKEKQQATTNARLLDRV (C-terminal amide) [SEQ ID NO 239] | 13.2 | 100 |
| ZGPPISIDLPLQLLRKMIEIEKQEKEKQQATTNARLLDTV (C-terminal amide) [SEQ ID NO 246] | 38.8 | 100 |
| ZGPPISIDLPLYLLRKMIEIEKQEKEKQQATTNARLLDRV (C-terminal amide) [SEQ ID NO 243] | 16.8 | 100 |
| ZGPPISIDLPLYLLRKMIEIEKQEKEKQQATTNARLLDTV (C-terminal amide) [SEQ ID NO 242] | 29 | 94 |

These binders were tested against corticotropin releasing factor 1 receptor (assay: cell-based or functional assay).

| CRF1R EC50 [nM] | CRF1R Emax % [%] | Binder |
| --- | --- | --- |
| 236 | 100 | ZGPPISIDLPQFLLRKMIEIEKQEKEKQQAANNRLLLDTI (C-terminal amide) [SEQ ID NO 221] |
| 1000 | 32 | ZGPPISIDLPLQLLRKMIEIEKQEKEKQQAANNALLLDTI (C-terminal amide) [SEQ ID NO 248] |
| 806 | 70 | ZGPPISIDLPLELLRKMIEIEKQEKEKQQAANNALLLDTI (C-terminal amide) [SEQ ID NO 235] |
| 708 | 6 | ZGPPISIDVPIGLLRKMIEIEKQEKEKQQAANNRLLLDTI (C-terminal amide) [SEQ ID NO 254] |
| 381 | 100 | ZGPPISIDLPLYLLRKMIEIEKQEKEKQQAANNALLLATI (C-terminal amide) [SEQ ID NO 245] |
| 1000 | 42 | ZGPPISIDVPTYLLRKMIEIEKQEKEKQQAANNRLLLDTI (C-terminal amide) [SEQ ID NO 253] |
| 384 | 95 | ZGPPISIDLPAFLLRKMIEIEKQEKEKQQAANNRLLLDTI (C-terminal amide) [SEQ ID NO 222] |
| 308 | 99 | ZGPPISIDLPLHLLRKMIEIEKQEKEKQQAANNALLLATI (C-terminal amide) [SEQ ID NO 241] |
| 33.3 | 84 | ZGPPISIDLPFQLLRILIEIEKQEKEKQQAANNRLLLDTI (C-terminal amide) [SEQ ID NO 255] |
| 1000 | 50 | ZGPPISIDLPLQLLEKMIEIEKQEKEKQQAANNALLLATI (C-terminal amide) [SEQ ID NO 249] |
| 1000 | 18 | ZGPPISIDLPIYLLRKMIEIEKQEKEKQQAANNALLLATI (C-terminal amide) [SEQ ID NO 237] |
| 753 | 88 | ZGPPISIDLPLHLLRKMIEIEKQEKEKQQATTNARLLDTV (C-terminal amide) [SEQ ID NO 238] |

Second part, the binder before the results:

| Binder | CRF1R EC50 [nM] | CRF1R Emax % [%] |
| --- | --- | --- |
| ZGPPISIDLPLWLLRKMIEIEKQEKEKQQAANNRLLLDTI (C-terminal amide) [SEQ ID NO 218] | 98.4 | 100 |
| ZGPPISIDLPLHLLRKMIEIEKQEKEKQQAANNALLLDTI (C-terminal amide) [SEQ ID NO 240] | 915 | 80 |
| ZGPPISIDLPQYLLRKMIEIEKQEKEKQQAANNALLLDTI (C-terminal amide) [SEQ ID NO 224] | 1000 | 27 |
| ZGPPISIDLPTYLLRKMIEIEKQEKEKQQAANNALLLATI (C-terminal amide) [SEQ ID NO 233] | 1000 | 11 |
| ZGPPISIDLPFQLLRKMIEIEKQEKEKQQAANNRLLLATI (C-terminal amide) [SEQ ID NO 250] | 138 | 99 |
| ZGPPISIDLPTYLLRILIEIEKQEKEKQQAANNRLLLDTI (C-terminal amide) [SEQ ID NO 252] | 226 | 100 |
| ZGPPISIDLPHFLLRKMIEIEKQEKEKQQAANNRLLLDTI (C-terminal amide) [SEQ ID NO 219] | 80.9 | 100 |
| ZGPPISIDLPYFLLRKMIEIEKQEKEKQQAANNRLLLDTI (C-terminal amide) [SEQ ID NO 220] | 63.6 | 81 |
| ZGPPISIDLPTYLLRKMIEIEKQEKEKQQAANNALLLDTI (C-terminal amide) [SEQ ID NO 232] | 1000 | 7 |
| ZGPPISIDLPYYLLRKMIEIEKQEKEKQQAANNALLLATI (C-terminal amide) [SEQ ID NO 225] | 220 | 97 |
| ZGPPISIDLPFHLLRKMIEIEKQEKEKQQAANNALLLATI (C-terminal amide) [SEQ ID NO 229] | 298 | 100 |
| ZGPPISIDLPIYLLRKMIEIEKQEKEKQQAANNALLLDTI (C-terminal amide) [SEQ ID NO 236] | 1000 | 15 |
| ZGPPISIDLPYYLLRKMIEIEKQEKEKQQAANNALLLDTI (C-terminal amide) [SEQ ID NO 226] | 315 | 95 |
| ZGPPISIDLPQYLLRKMIEIEKQEKEKQQAANNALLLATI (C-terminal amide) [SEQ ID NO 227] | 918 | 18 |
| ZGPPISIDLPFQLLRKMIEIEKQEKEKQQAANNALLLDTI (C-terminal amide) [SEQ ID NO 251] | 926 | 80 |
| ZGPPISIDLPFHLLRKMIEIEKQEKEKQQAANNALLLDTI (C-terminal amide) [SEQ ID NO 228] | 276 | 100 |
| ZGPPISIDLPLYLLRKMIEIEKQEKEKQQAANNALLLDTI (C-terminal amide) [SEQ ID NO 244] | 300 | 100 |
| ZGPPISIDLPLELLRKMIEIEKQEKEKQQAANNALLLATI (C-terminal amide) [SEQ ID NO 234] | 434 | 96 |
| ZGPPISIDLPFYLLRKMIEIEKQEKEKQQAANNALLLATI (C-terminal amide) [SEQ ID NO 231] | 94 | 100 |
| ZGPPISIDLPFFLLRKMIEIEKQEKEKQQAANNRLLLDTI (C-terminal amide) [SEQ ID NO 223] | 48.1 | 81 |
| ZGPPISIDLPFYLLRKMIEIEKQEKEKQQAANNALLLDTI (C-terminal amide) [SEQ ID NO 230] | 219 | 100 |
| ZGPPISIDLPLQLLEKMIEIEKQEKEKQQATTNARLLDRV (C-terminal amide) [SEQ ID NO 247] | 1000 | 34 |
| ZGPPISIDLPLHLLRKMIEIEKQEKEKQQATTNARLLDRV (C-terminal amide) [SEQ ID NO 239] | 587 | 80 |
| ZGPPISIDLPLQLLRKMIEIEKQEKEKQQATTNARLLDTV (C-terminal amide) [SEQ ID NO 246] | 1000 | 33 |
| ZGPPISIDLPLYLLRKMIEIEKQEKEKQQATTNARLLDRV (C-terminal amide) [SEQ ID NO 243] | 440 | 96 |
| ZGPPISIDLPLYLLRKMIEIEKQEKEKQQATTNARLLDTV (C-terminal amide) [SEQ ID NO 242] | 358 | 99 |
